According to publication PMC2778870, “The Crystal Structures of Yeast Get3 Suggest a Mechanism for Tail-Anchored Protein Membrane Insertion” (PLoS ONE, 2009):

Tests used:
[1] = target: T1, D. hansenii Get3 (Debaryomyces hansenii, UniProt Q6BSM0); test: X-ray crystallography, […] A, co-crystallization; settings: 2 mM ADP, 1 mM MgCl2, 5 mM KCl, 0.2 M ammonium mono-basic phosphate, 20% glycerol; nucleotide-binding domain, closed dimer
T1 construct: recombinant, expressed and purified; homo-dimer; finger domain not visible in electron density
T1 sequence (Q6BSM0 1-348): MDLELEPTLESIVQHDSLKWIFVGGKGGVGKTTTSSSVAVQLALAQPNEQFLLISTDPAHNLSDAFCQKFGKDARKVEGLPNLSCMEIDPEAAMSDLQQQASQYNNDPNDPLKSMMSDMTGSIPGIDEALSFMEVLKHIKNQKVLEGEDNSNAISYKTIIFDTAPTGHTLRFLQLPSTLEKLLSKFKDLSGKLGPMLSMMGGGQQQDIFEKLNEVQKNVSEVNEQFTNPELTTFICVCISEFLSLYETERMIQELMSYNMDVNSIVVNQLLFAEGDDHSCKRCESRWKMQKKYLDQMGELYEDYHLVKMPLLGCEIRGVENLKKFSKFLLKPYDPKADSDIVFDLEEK

[2] = target: the molecule itself; test: crystal structure; D. hansenii Get3 with ADP, 1.8 Å; hanging drop, 0.2 M ammonium mono-basic phosphate, 20% glycerol, 1 mM MgCl2, 5 mM KCl, 2 mM ADP
[3] = target: the molecule itself; test: crystal structure; S. cerevisiae Get3, nucleotide-free, 2.3 Å; hanging drop, 100 mM MES pH 6.0, PEG 3350 15%, 0.2 M ammonium sulfate; two monomers in the asymmetric unit

## Nc1ncnc2c1ncn2[C@@H]1O[C@H](COP(=O)(O)OP(=O)(O)O)[C@@H](O)[C@H]1O [ADP]
[1]
  X-ray crystallography, 1.8 A, co-crystallization: The bound ADP molecule can be clearly identified in the Get3 nucleotide-binding domain (NBD)

B1: D. hansenii Get3 (enzyme)
chain: MDLELEPTLESIVQHDSLKWIFVGGKGGVGKTTTSSSVAVQLALAQPNEQFLLISTDPAHNLSDAFCQKFGKDARKVEGLPNLSCMEIDPEAAMSDLQQQASQYNNDPNDPLKSMMSDMTGSIPGIDEALSFMEVLKHIKNQKVLEGEDNSNAISYKTIIFDTAPTGHTLRFLQLPSTLEKLLSKFKDLSGKLGPMLSMMGGGQQQDIFEKLNEVQKNVSEVNEQFTNPELTTFICVCISEFLSLYETERMIQELMSYNMDVNSIVVNQLLFAEGDDHSCKRCESRWKMQKKYLDQMGELYEDYHLVKMPLLGCEIRGVENLKKFSKFLLKPYDPKADSDIVFDLEEK
notes: Get3 ATPase of the yeast D. hansenii (Debaryomyces hansenii); finger domain not seen in the electron density; Crystallised with ADP and Mg; also called DhGet3; source: expressed and purified
[2]
  stoichiometry N: 2

B2: S. cerevisiae full-length Get3 (enzyme, UniProt Q12154 1-354, looked up)
chain: MDLTVEPNLHSLITSTTHKWIFVGGKGGVGKTTSSCSIAIQMALSQPNKQFLLISTDPAHNLSDAFGEKFGKDARKVTGMNNLSCMEIDPSAALKDMNDMAVSRANNNGSDGQGDDLGSLLQGGALADLTGSIPGIDEALSFMEVMKHIKRQEQGEGETFDTVIFDTAPTGHTLRFLQLPNTLSKLLEKFGEITNKLGPMLNSFMGAGNVDISGKLNELKANVETIRQQFTDPDLTTFVCVCISEFLSLYETERLIQELISYDMDVNSIIVNQLLFAENDQEHNCKRCQARWKMQKKYLDQIDELYEDFHVVKMPLCAGEIRGLNNLTKFSQFLNKEYNPITDGKVIYELEDKE
notes: Get3 (Arr4) ATPase, S. cerevisiae, full length; in the crystal residues 191-210 (molecule A) and 93-116 (molecule B) are not seen; Se-Met protein was used for phasing only; One Zn ion is held between the two monomers; also called ScGet3; Arr4; source: E. coli, purified (Ni-chelating column, gel-filtration column)
[3]
  stoichiometry N: 2
